Data reported in US20140065069A1, “Materials and Methods Relating to Cardiovascular Imaging” (KING'S COLLEGE LONDON, priority 2011, published 2014).
“Also recorded” adds a separate entry of the source. No end group written: not given here.

Tests used:
tropoelastin = molecular target: T1, tropoelastin (Mus musculus, UniProt P54320); assay: In vivo imaging of plaques in HFD fed ApoE−/− mice with gadolinium labelled conjugates; conditions: gadolinium labelled conjugate
T1 construct: from tissue; host or cells: plaque-laden brachiocephalic artery and aortic arch of living HFD-fed ApoE-/- mice
T1 sequence (P54320 28-860): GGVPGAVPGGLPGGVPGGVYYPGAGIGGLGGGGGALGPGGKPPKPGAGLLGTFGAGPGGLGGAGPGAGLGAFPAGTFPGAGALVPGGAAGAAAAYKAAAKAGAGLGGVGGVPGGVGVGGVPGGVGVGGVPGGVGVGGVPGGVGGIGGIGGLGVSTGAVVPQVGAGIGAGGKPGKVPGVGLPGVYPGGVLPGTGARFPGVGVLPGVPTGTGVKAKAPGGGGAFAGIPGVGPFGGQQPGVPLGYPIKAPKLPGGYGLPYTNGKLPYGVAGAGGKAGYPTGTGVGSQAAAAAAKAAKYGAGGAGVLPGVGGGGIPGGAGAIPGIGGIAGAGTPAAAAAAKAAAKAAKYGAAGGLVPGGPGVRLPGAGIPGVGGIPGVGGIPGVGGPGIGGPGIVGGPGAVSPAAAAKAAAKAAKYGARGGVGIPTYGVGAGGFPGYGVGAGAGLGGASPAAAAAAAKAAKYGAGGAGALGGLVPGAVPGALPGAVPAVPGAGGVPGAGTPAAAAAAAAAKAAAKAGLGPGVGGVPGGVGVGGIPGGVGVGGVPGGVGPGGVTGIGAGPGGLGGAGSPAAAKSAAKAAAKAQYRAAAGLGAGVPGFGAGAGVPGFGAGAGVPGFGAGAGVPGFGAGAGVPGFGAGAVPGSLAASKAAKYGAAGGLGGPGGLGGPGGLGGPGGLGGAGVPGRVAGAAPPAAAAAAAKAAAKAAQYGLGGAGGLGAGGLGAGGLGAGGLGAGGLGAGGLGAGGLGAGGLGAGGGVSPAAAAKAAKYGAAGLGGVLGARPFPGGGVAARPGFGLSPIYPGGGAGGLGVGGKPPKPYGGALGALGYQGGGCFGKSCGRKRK
Excerpt: MRI will be performed in a mouse model of progressive atherosclerosis at 4, 8 and 12 weeks post commencement of a high fat diet and in a model of angiotensin-II (Ang-II) induced aortic aneurysm formation at 1, 2, 3 and 4 weeks post Ang-II releasing mini pump implantation. Ten mice will be scanned at each time point either receiving the tropoelastin or TNF-alpha binding contrast agent (CA) resulting in a total of […], respectively. Animals will undergo a pre and post contrast MRI session at each time point and subsequently will be sacrificed for validation with histology, immunostaining, electron and mass spectroscopy.

Substance | uptake in plaque-free carotid artery (tropoelastin) | uptake in plaque-laden brachiocephalic artery (BCA) and aortic arch (tropoelastin) | time of imaging post contrast injection (12 weeks HFD fed ApoE−/− mice) | biodistribution (HFD fed ApoE−/− mice) | renal clearance (HFD fed ApoE−/− mice)
(DOTA-Gd)-VVGSPSAQDEASPLS (not fully specified (N-terminus); printed as (DOTA-Gd)-VVGSPSAQDEASPLS; also: Gd complexed by DOTA) | no uptake; also recorded: not in the plaque-free carotid artery | preferential uptake | ≥ 1 h | favourable biodistribution | rapid renal clearance
K(DOTA-Gd)-YPDHVQYTHY (not fully specified (N-terminus); printed as K(DOTA-Gd)-YPDHVQYTHY; also: Gd complexed by DOTA on the N-terminal Lys) [K-(DOTA-Gd)-YPDHVQYTHY] | no uptake | preferential uptake |  |  | 
